Experimental data taken from article PMC11417388, “Trypanosome mRNA recapping is triggered by hypermethylation originating from cap 4” (Nucleic Acids Research, 2024).

B1: TbCe1 (Trypanosoma brucei brucei TREU927) (protein)
chain: MSATDVASELRSGAPEYVPTFLRCKQSENVTAFESPVVFLMFGCRGAGKSTQSTLLSKTYNLLYLSSGDIYKSGKQPFVELRKILNEHFGDGKERVYNGVVLDRFIANSEFEAFYVQTALRSVGLPVPFVFMLAIDQGLAAKRAEERGDNKGGNQRWRAVEQKAQAITANTVYAPIQCLKTIRVESDMTIDDVFNEIKTTIANQLPPDLFNLQLPREARREVEGTVLVEDYELYMELANDVHTVVGNLRGRRDSAPLSNVGAHLDKEYFSFANKRLRSQLTTMHVTLKADGLRFLVMKHKTRGYIGFPSAFTHCYELNDLFEGVEMAPKPYTELKKWMNDKSCELPADFLLDTEVVVHEKKPTLYIIDFIYFWGLDGRRMQFEQRLKVLREYFGDMKPQGQVIAMKDYVPINKIRTLVEEMKRRTELPVDGLIFQHNGSYRFGSDKFLIKWKPVHLCTVDFRLANGRVENGVWTFDLFVTDDFIEENGFREVAYPGATALIPASVVEENGLQNGMIIEMALSEKESVKKTSPNAPSEKTRWTFRNARNDKPSPNKYSIVTRICELMHVDLDELVSLCEKVPFYRNV
notes: expressed as His-Smt3 fusion in E. coli; tag removed by Ulp1; glycerol gradient purified

Assays:
[1] = biological target: T1, vvD1/D12 (Vaccinia virus WR, UniProt P04298)
T1 construct: gene OPG113

[2] = substrate: Nc1ncnc2c1ncn2[C@@H]1O[C@H](COP(=O)(O)OP(=O)(O)OP(=O)(O)O)[C@@H](O)[C@H]1O; experiment: purified protein; type: biochemical, Trypanosoma brucei; conditions: co-substrate 100 nM fully methylated cap 4 pRNA (p m6,2AmAmCm m3Um), 0.5 mM MgCl2, pH 8.5, 27 °C, labelled compound

Molecule | cap methyltransferase assay on ppRNA substrates [1] | Km [2] | kcat [2]
C[S+](CC[C@H](N)C(=O)O)C[C@H]1O[C@@H](n2cnc3c(N)ncnc32)[C@H](O)[C@@H]1O (stereo partly drawn) [AdoMet] | cap methyltransferase activity was compared on ppAmAmCmUm and unmodified ppRNAs | – | –
B1 | – | 0.21 µM | 0.0383 s⁻¹
